Where a chain is given by its changes, count along the chain named. Names may count otherwise.
How the values were obtained:
[1] = substrate: N[C@@H](CS)C(=O)O; experiment: purified protein; conditions: co-substrate L-His; 23 °C
[2] = substrate: N[C@@H](Cc1c[nH]cn1)C(=O)O; experiment: purified protein; conditions: co-substrate L-Cys
[3] = substrate: C[N+](C)(C)[C@@H](Cc1cnc[nH]1)C(=O)[O-]; experiment: O2 consumption, NeoFoxy oxygen electrode; type: biochemical, Hydrogenimonas thermophila; conditions: co-substrate L-Cys, 23 °C
[4] = substrate: N[C@@H](CS)C(=O)O; experiment: O2 consumption, NeoFoxy oxygen electrode; type: biochemical, Hydrogenimonas thermophila; conditions: co-substrate L-His, 23 °C
[5] = substrate: N[C@@H](Cc1c[nH]cn1)C(=O)O; experiment: O2 consumption, NeoFoxy oxygen electrode; type: biochemical, Hydrogenimonas thermophila; conditions: co-substrate L-Cys, 23 °C

B1: OvoATh2 (Hydrogenimonas thermophila; Y399F) (protein)
chain: NKILLRPLLLKQKNPENLRQLIKKSFHRTFDTFESLFSMLRNDEAFYNRPEPLRHPHIFYFGHTAVFFINKLILSKIIDTRINAKMESIFAIGVDEMSWDDLNDDHYEWPSVEETRLYRNRVREVVDNLINTLPLELPITWDSPWWIILMGIEHERIHIETSSVLIRQTDISLVLPQPEWSKCNVSGKAPENELLFVPGGEIEIGKYKSDDYYGWDNEYGKHKTVIPDFKASKYLVSNGEFMEFVKDGGYENDLWWEEEGLAWRNFKKAKHPIFWIPFKNEYRYRTLTEIVDMPLDWPVDVNYHEAKAFCNWLSAKKGKPIRLPVEDEWYRLKEYCNVPDVSKWDEKAPANINLEHYASACPVTQFSFGNFYDVIGNVWQWTETPIYPFNGFKIHPIFDDFSTPTFDNRHNLIKGGSFISTGNEILASSRYAFRRHFFQHAGFRYVESSYKEKINSSGYESDTQVSQYCEFGWGDRYFGIENYPKRCAKICIEVTEGKPRKKALDVGCAIGRSTLELATSFESVTGLDFSARFIEMAERMRKDGSIRYTITTEGELVEYKEATLPKRLAKVVDRVEFWQADACNLKPIFTGYDLVFAGNLIDRLYDPAKFLNDIGKRINSGGMLILTSPYTWLEEFTPKQKWLGGFKQDGEPVKSIDGLKSHLKDSFKLIETRDIEFVIRETARKFQHSVAQMSIWEKI
Protein B1 has a Km [1] of 575.2 ± 22.0 µM, a kcat [1] of 361.2 ± 5.9 min^–1 and a kcat/Km [1] of 10500 M⁻¹ s⁻¹. The Km ([2]; 23 °C) was 38.2 ± 2.6 µM and the kcat ([2]; 23 °C) was 361.2 ± 5.9 min^–1.

B2: OvoATh2 (Hydrogenimonas thermophila; Y399F/Y61F) (protein)
chain: B1 chain with Y60F
Work on B2 yielded a Km [2] of 31.3 ± 4.0 µM and a kcat [2] of 14.8 ± 0.3 min^–1.

B3: OvoATh2 (Hydrogenimonas thermophila; Y61F) (protein)
chain: B1 chain with Y60F, F398Y
In the case of B3, the Km [2] is reported as 50.9 ± 2.5 µM and the kcat [2] is reported as 23.4 ± 0.2 min^–1.

B4: OvoATh2 (Hydrogenimonas thermophila) (protein)
chain: B1 chain with F398Y
For B4, the Km [3] was 61.9 ± 3.5 µM, the kcat [3] was 127.2 ± 1.5 min^–1 and the Km [4] was 278.6 ± 9.0 µM. The kcat [4] was 589.0 ± 3.5 min^–1, the kcat/Km [4] was 35000 ± 1500 M⁻¹ s⁻¹ and the Km [5] was 585.1 ± 28.0 µM. It also gave a kcat [5] of 589.0 ± 3.5 min^–1.

Source: article PMC10696552
